Reference: paper PMC3969220, “N-terminus oligomerization is conserved in intracellular calcium release channels” (Biochemical Journal, 2014)
Where “and” joins values, the source holds several entries; their conditions need not be identical. Equal values may be shown once. One block for each molecule: values may come before it.

Assays:
[1] = target: IP3R1 N-terminal domain (residues 1–667, human IP3R1/SI− co-ordinates), c-Myc- or HA-tagged, in HEK-293 cells (human); test: cross-linking; HEK-293 cell homogenates expressing c-Myc-tagged IP3R1 1-667 constructs, pre-treated with 10 mM DTT, without or with 1 or 10 μM IP3, incubated with glutaraldehyde for the indicated times; SDS/PAGE (6% gels), anti-c-Myc Western blot
[2] = target: calpain-cleaved ~150 kDa N-terminal fragment of native RyR1 from rabbit skeletal muscle SR (rabbit (endogenous in skeletal muscle SR)); test: cross-linking; rabbit skeletal muscle SR pre-treated with 10 mM DTT, cleaved with calpain-2, centrifuged; supernatant (liberated N-terminal fragment only) incubated with 0.0025% glutaraldehyde; SDS/PAGE (4% gels), Western blot with Ab2142
[3] = target: calpain-cleaved ~150 kDa N-terminal fragment of native RyR1 from rabbit skeletal muscle SR (rabbit (endogenous in skeletal muscle SR)); test: cross-linking; rabbit skeletal muscle SR pre-treated with 10 mM DTT, cleaved with calpain-2, centrifuged; resuspended SR pellet incubated with 0.0025% glutaraldehyde; SDS/PAGE (4% gels), Western blot with Ab2142
[4] = target: IP3R1^(1–667, K493A), IP3 binding-deficient mutant, c-Myc-tagged, in HEK-293 cells (human); test: cross-linking; HEK-293 cell homogenates expressing c-Myc-tagged IP3R1 1-667 constructs, pre-treated with 10 mM DTT, without or with 1 or 10 μM IP3, incubated with glutaraldehyde for the indicated times; SDS/PAGE (6% gels), anti-c-Myc Western blot
[5] = target: the molecule itself; test: cross-linking; HEK-293 cell homogenates expressing c-Myc-tagged BT4LR1 or BT4LR3, pre-treated without or with 10 mM DTT, incubated with glutaraldehyde for the indicated times; SDS/PAGE (6% gels), anti-c-Myc Western blot
[6] = target: the molecule itself; test: not stated; unpublished work (M. Seidel and S. Zissimopoulos)

B1: c-Myc-tagged RyR3 N-terminal fragment (residues 1–911), BT4LR3, in HEK-293 cells (domain or fragment, rabbit, UniProt Q9TS33 1-911, looked up)
chain: MAEGGEGGEDEIQFLRTEDEVVLQCIATVHKEQRKFCLAAEGLGNRLCFLEPTSEAKFIPPDLCVCNFVLEQSLSVRALQEMLANTGENGGEGAAQGGGHRTLLYGHAILLRHSFSGMYLTCLTTSRSQTDKLAFDVGLREHATGEACWWTIHPASKQRSEGEKVRIGDDLILVSVSSERYLHLSISNGNIQVDASFMQTLWNVHPTCSGSSIEEGYLLGGHVVRLFHGHDECLTIPSTDQNDSQHRRIFYEAGGAGTRARSLWRVEPLRISWSGSNIRWGQAFRLRHLTTGHYLALTEDQGLLLQDRGKADTKSTAFSFRPSKETKEKLDSSHKRDIEGMGVPEIKYGDSVCFVQHIASGLWVTYKAQDAKTSRLGPLKRKVILHQEGHMDDGLTLQRCQREESQAARIIRNTTALFSQFVSGNNRTAAPVTLPIEEVLQTLHDLIAYFQPPEEEMQHEDKQNKLRSLKNRQNLFKEEGMLALVLNCIDRLNIYNSVAHFAGIAREESGMAWKEVLSLLYKLLAALIRGNRNTCAQFSNNLDWLISKLDRLESSSGILEVLHCILIESPEALNLIAEGHIKSIISLLDKHGRNHKVLDVLCSLCLCNGVAVRANQNLICDNLLPRRNLLLQTRLINDVTSIRPNIFLGVAEGSAQYKKWYFELIIDQVDPFLTAEPTHLRVGWASSSGYAPYPGGGEGWGGNGVGDDLYSYGFDGLHLWSGRIPRAVASINQHLLKSDDVVSCCLDLGVPSISFRINGQPVQGMFENFNTDGLFFPVMSFSAGVKVRFLMGGRHGEFKFLPPSGYAPCYEALLPKEKMRLEPVKEYKRDAEGVRDLLGTTQFLSQASFIPCPIDTSQVVLPPHLEKIRDRLAENIHELWGMNKIELGWTFGKMRDDNKRQHPCLVEFSKL
notes: ryanodine receptor 3 (RyR3), rabbit, residues 1-911; also called c-Myc–BT4LR3
stoichiometry N [5]: 4

B2: truncated RyR2 N-terminal fragment (residues 1–654), of the unpublished observation (domain or fragment, human, UniProt Q92736 1-654, looked up)
chain: MADGGEGEDEIQFLRTDDEVVLQCTATIHKEQQKLCLAAEGFGNRLCFLESTSNSKNVPPDLSICTFVLEQSLSVRALQEMLANTVEKSEGQVDVEKWKFMMKTAQGGGHRTLLYGHAILLRHSYSGMYLCCLSTSRSSTDKLAFDVGLQEDTTGEACWWTIHPASKQRSEGEKVRVGDDLILVSVSSERYLHLSYGNGSLHVDAAFQQTLWSVAPISSGSEAAQGYLIGGDVLRLLHGHMDECLTVPSGEHGEEQRRTVHYEGGAVSVHARSLWRLETLRVAWSGSHIRWGQPFRLRHVTTGKYLSLMEDKNLLLMDKEKADVKSTAFTFRSSKEKLDVGVRKEVDGMGTSEIKYGDSVCYIQHVDTGLWLTYQSVDVKSVRMGSIQRKAIMHHEGHMDDGISLSRSQHEESRTARVIRSTVFLFNRFIRGLDALSKKAKASTVDLPIESVSLSLQDLIGYFHPPDEHLEHEDKQNRLRALKNRQNLFQEEGMINLVLECIDRLHVYSSAAHFADVAGREAGESWKSILNSLYELLAALIRGNRKNCAQFSGSLDWLISRLERLEASSGILEVLHCVLVESPEALNIIKEGHIKSIISLLDKHGRNHKVLDVLCSLCVCHGVAVRSNQHLICDNLLPGRDLLLQTRLVNHVSS
notes: may be the same construct as m10
stoichiometry N [6]: 4

B3: c-Myc-tagged RyR1 N-terminal fragment (residues 1–915), BT4LR1, in HEK-293 cells (domain or fragment, rabbit, UniProt P11716 1-915, looked up)
chain: MGDGGEGEDEVQFLRTDDEVVLQCSATVLKEQLKLCLAAEGFGNRLCFLEPTSNAQNVPPDLAICCFTLEQSLSVRALQEMLANTVEAGVESSQGGGHRTLLYGHAILLRHAHSRMYLSCLTTSRSMTDKLAFDVGLQEDATGEACWWTMHPASKQRSEGEKVRVGDDLILVSVSSERYLHLSTASGELQVDASFMQTLWNMNPICSCCEEGYVTGGHVLRLFHGHMDECLTISAADSDDQRRLVYYEGGAVCTHARSLWRLEPLRISWSGSHLRWGQPLRIRHVTTGRYLALTEDQGLVVVDACKAHTKATSFCFRVSKEKLDTAPKRDVEGMGPPEIKYGESLCFVQHVASGLWLTYAAPDPKALRLGVLKKKAILHQEGHMDDALFLTRCQQEESQAARMIHSTAGLYNQFIKGLDSFSGKPRGSGPPAGPALPIEAVILSLQDLIGYFEPPSEELQHEEKQSKLRSLRNRQSLFQEEGMLSLVLNCIDRLNVYTTAAHFAEYAGEEAAESWKEIVNLLYELLASLIRGNRANCALFSTNLDWVVSKLDRLEASSGILEVLYCVLIESPEVLNIIQENHIKSIISLLDKHGRNHKVLDVLCSLCVCNGVAVRSNQDLITENLLPGRELLLQTNLINYVTSIRPNIFVGRAEGSTQYGKWYFEVMVDEVVPFLTAQATHLRVGWALTEGYSPYPGGGEGWGGNGVGDDLYSYGFDGLHLWTGHVARPVTSPGQHLLAPEDVVSCCLDLSVPSISFRINGCPVQGVFEAFNLDGLFFPVVSFSAGVKVRFLLGGRHGEFKFLPPPGYAPCHEAVLPRERLRLEPIKEYRREGPRGPHLVGPSRCLSHTDFVPCPVDTVQIVLPPHLERIREKLAENIHELWALTRIEQGWTYGPVRDDNKRLHPCLVNFHSLPE
notes: ryanodine receptor 1 (RyR1), rabbit, residues 1-915; also called c-Myc–BT4LR1
stoichiometry N [5]: 4

The next lines start with the values.

stoichiometry N [1]: 4
Molecule: IP3R1 N-terminal domain (residues 1–667, human IP3R1/SI− co-ordinates), c-Myc- or HA-tagged, in HEK-293 cells (domain or fragment)

stoichiometry N [2]: 2 and 3 and 4 | stoichiometry N [3]: 2 and 3 and 4
Molecule: calpain-cleaved ~150 kDa N-terminal fragment of native RyR1 from rabbit skeletal muscle SR (domain or fragment)

stoichiometry N [4]: 4
Molecule: IP3R1^(1–667, K493A), IP3 binding-deficient mutant, c-Myc-tagged, in HEK-293 cells (domain or fragment)
